Experimental data published in patent US20190040130A1 (Alector, published 2019).

T1: human TREM2 expressed on cells (human, UniProt Q9NZC2 19-230)
T1 construct: also called huT2 BW; cell expressed TREM2
T1 sequence: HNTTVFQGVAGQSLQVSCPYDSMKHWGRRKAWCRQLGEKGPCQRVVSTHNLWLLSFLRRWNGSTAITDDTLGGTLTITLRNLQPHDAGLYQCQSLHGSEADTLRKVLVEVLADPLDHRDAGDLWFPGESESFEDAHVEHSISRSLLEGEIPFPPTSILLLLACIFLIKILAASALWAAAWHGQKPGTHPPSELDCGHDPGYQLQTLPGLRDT


Biological target: T1, human TREM2 expressed on cells
Experiment: FACS, BW cells
Method: To examine cell binding of anti-TREM2 antibodies, recombinant, human TREM2-expressing BW5147. G.1.4 cells (ATCC® TIB48™) were established by stably expressing either mouse TREM2 or human TREM2 together with Dap12 using viral infection. Cells were harvested by scraping, washed in PBS, counted and plated on 96-well U bottom plates at 1×10⁵ cells/well. The plates were spun at 1,400 rpm for 3 minutes and primary anti-TREM2 or control antibodies were added in FACS buffer (PBS+2% FBS) and incubated on ice for one hour. Cells were subsequently centrifuged as before and washed thrice with FACS buffer. Cells were then incubated with anti-human PE conjugated secondary antibody (BD Biosciences) in FACS buffer for 30 minutes on ice. Cells were again washed thrice with FACS buffer and analyzed on a BD FACS Canto. Binding was measured as mean fluorescence intensity in the […].

Binder	Cell binding (FOB) [fold over background]
AL2p-h25 (antibody, IgG1, V domains shown, IgG1; Fab in monovalent BLI) VH: QVQLVQSGAEVKKPGASLKISCKASGYAFSSSWMNWVRQAPGQGLEWIGRIYPGDGDTNYNGEFRVRATLTADTSTSTAYMELSSLRSEDTAVYYCARLLRNQPGESYAMDYWGQGALVTVSS VL: DVVMTQTPLSLSVTPGQPASISCRSSQSLVHSNGYTYLHWYLQKPGQSPQLLIYKVSNRFSGVPDRFSGSGSGTDFTLKISRVEAEDLGVYFCSQSTRVPYTFGQGTKLEIK	90
AL2p-h50 (antibody, IgG1, V domains shown, IgG1; Fab in monovalent BLI) VH: QVQLVQSGAEVKKPGSSVKVSCKASGYAFSSSWMNWVRQAPGQGLEWMGRIYPGDGDTNYAQKFQGRVTITADESTSTAYMELSSLRSEDTAVYYCARLLRNQPGESYAMDYWGQGTLVTVSS VL: DVVMTQTPLSLSVTPGQPASISCRSSQSLVHSNGYTYLHWYLQKPGQSPQLLIYKVSNRFSGVPDRFSGSGSGTDFTLKISRVEAEDVGVYYCSQSTRVPYTFGQGTKLEIK	78
AL2p-h27 (antibody, IgG1, V domains shown, IgG1; Fab in monovalent BLI) VH: QVQLVQSGAEVKKPGASVKVSCKASGYAFSSSWMNWVRQAPGQGLEWIGRIYPGDGDTNYNGEFRVRATLTADTSTSTAYMELSSLRSEDTAVYFCARLLRNQPGESYAMDYWGQGTLVTVSS VL: DVVMTQTPLSLSVTPGQPASISCRSSQSLVHSNGYTYLHWYLQKPGQSPQLLIYKVSNRFSGVPDRFSGSGSGTDFTLKISRVEAEDLGVYFCSQSTRVPYTFGQGTKLEIK	78
AL2p-h59 (antibody, IgG1, V domains shown, IgG1; Fab in monovalent BLI) VH: QVQLVQSGAEVKKPGASVKVSCKASGYAFSSSWMNWVRQAPGQRLEWMGRIYPGDGDTNYAQKFQGRVTITRDTSASTAYMELSSLRSEDTAVYYCARLLRNQPGESYAMDYWGQGTLVTVSS VL: DIVMTQSPLSLPVTPGEPASISCRSSQSLVHSNGYTYLHWYLQKPGQSPQLLIYKVSNRFSGVPDRFSGSGSGTDFTLKISRVEAEDVGVYYCSQSTRVPYTFGGGTKVEIK	69
AL2p-h34 (antibody, IgG1, V domains shown, IgG1; Fab in monovalent BLI) VH: QVQLVQSGAEVKKPGSSVKVSCKASGYAFSSSWMNWVRQAPGQGLEWIGRIYPGDGDTNYAQKFQGRATITADTSTSTAYMELSSLRSEDTAVYFCARLLRNQPGESYAMDYWGQGTLVTVSS VL: DVVMTQTPLSLSVTPGQPASISCRSSQSLVHSNGYTYLHWYLQKPGQSPQLLIYKVSNRFSGVPDRFSGSGSGTDFTLKISRVEAEDLGVYFCSQSTRVPYTFGQGTKLEIK	84
AL2p-h33 (antibody, IgG1, V domains shown, IgG1; Fab in monovalent BLI) VH: QVQLVQSGAEVKKPGSSVKVSCKASGYAFSSSWMNWVRQAPGQGLEWIGRIYPGDGDTNYAQKFQGRATLTADTSTTTAYMELSSLRSEDTAVYFCARLLRNQPGESYAMDYWGQGTLVTVSS VL: DVVMTQTPLSLSVTPGQPASISCRSSQSLVHSNGYTYLHWYLQKPGQSPQLLIYKVSNRFSGVPDRFSGSGSGTDFTLKISRVEAEDLGVYFCSQSTRVPYTFGQGTKLEIK	74
AL2p-h30 (antibody, IgG1, V domains shown, IgG1; Fab in monovalent BLI) VH: QVQLVQSGAEVKKPGASVKVSCKASGYAFSSSWMNWVRQAPGQGLEWMGRIYPGDGDTNYAQKFQGRVTMTADTSTSTAYMELSSLRSEDTAVYYCARLLRNQPGESYAMDYWGQGTLVTVSS VL: DVVMTQTPLSLSVTPGQPASISCRSSQSLVHSNGYTYLHWYLQKPGQSPQLLIYKVSNRFSGVPDRFSGSGSGTDFTLKISRVEAEDLGVYFCSQSTRVPYTFGQGTKLEIK	88
AL2p-h35 (antibody, IgG1, V domains shown, IgG1; Fab in monovalent BLI) VH: QVQLVQSGAEVKKPGSSVKVSCKASGYAFSSSWMNWVRQAPGQGLEWMGRIYPGDGDTNYAQKFQGRATITADTSTSTAYMELSSLRSEDTAVYYCARLLRNQPGESYAMDYWGQGTLVTVSS VL: DVVMTQTPLSLSVTPGQPASISCRSSQSLVHSNGYTYLHWYLQKPGQSPQLLIYKVSNRFSGVPDRFSGSGSGTDFTLKISRVEAEDLGVYFCSQSTRVPYTFGQGTKLEIK	69

Further lines, results first:

Cell binding (FOB) [fold over background]	Binder
81	AL2p-h32 (antibody, IgG1, V domains shown, IgG1; Fab in monovalent BLI) VH: QVQLVQSGAEVKKPGSSVKVSCKASGYAFSSSWMNWVRQAPGQGLEWIGRIYPGDGDTNYNGEFRVRATLTADTSTTTAYMELSSLRSEDTAVYFCARLLRNQPGESYAMDYWGQGTLVTVSS VL: DVVMTQTPLSLSVTPGQPASISCRSSQSLVHSNGYTYLHWYLQKPGQSPQLLIYKVSNRFSGVPDRFSGSGSGTDFTLKISRVEAEDLGVYFCSQSTRVPYTFGQGTKLEIK
83	AL2p-h77 (antibody, IgG1, V domains shown, IgG1; Fab in monovalent BLI) VH: QVQLVQSGAEVKKPGASVKVSCKASGYAFSSSWMNWVRQAPGQRLEWIGRIYPGDGDTNYAQKFQGRVTITADTSASTAYMELSSLRSEDTAVYYCARLLRNQPGESYAMDYWGQGTLVTVSS VL: DVVMTQSPDSLAVSLGERATINCRSSQSLVHSNGYTYLHWYQQKPGQSPKLLIYKVSNRFSGVPDRFSGSGSGTDFTLTISSLQAEDVAVYYCSQSTRVPYTFGGGTKVEIK
69	AL2p-h24 (antibody, IgG1, V domains shown, IgG1; Fab in monovalent BLI) VH: QVQLVQSGAEVVKPGASLKISCKASGYAFSSSWMNWVRQAPGQGLEWIGRIYPGDGDTNYNQKFQGRATLTADTSTSTAYMELSSLRSEDTAVYFCARLLRNQPGESYAMDYWGQGALVTVSS VL: DVVMTQTPLSLSVTPGQPASISCRSSQSLVHSNGYTYLHWYLQKPGQSPQLLIYKVSNRFSGVPDRFSGSGSGTDFTLKISRVEAEDLGVYFCSQSTRVPYTFGQGTKLEIK
76	AL2p-h23 (antibody, IgG1, V domains shown, IgG1; Fab in monovalent BLI) VH: QVQLVQSGAEVKKPGASLKISCKASGYAFSSSWMNWVRQAPGQGLEWIGRIYPGDGDTNYAQKFQGRATLTADTSTSTAYMELSSLRSEDTAVYYCARLLRNQPGESYAMDYWGQGALVTVSS VL: DVVMTQTPLSLSVTPGQPASISCRSSQSLVHSNGYTYLHWYLQKPGQSPQLLIYKVSNRFSGVPDRFSGSGSGTDFTLKISRVEAEDLGVYFCSQSTRVPYTFGQGTKLEIK
80	AL2p-h44 (antibody, IgG1, V domains shown, IgG1; Fab in monovalent BLI) VH: QVQLVQSGAEVKKPGASLKVSCKASGYAFSSSWMNWVRQAPGQRLEWIGRIYPGDGDTNYAQKFQGRATLTADTSASTAYMELSSLRSEDTAVYFCARLLRNQPGESYAMDYWGQGTLVTVSS VL: DVVMTQTPLSLSVTPGQPASISCRSSQSLVHSNGYTYLHWYLQKPGQSPQLLIYKVSNRFSGVPDRFSGSGSGTDFTLKISRVEAEDVGVYYCSQSTRVPYTFGQGTKLEIK
79	AL2p-h42 (antibody, IgG1, V domains shown, IgG1; Fab in monovalent BLI) VH: QVQLVQSGAEVKKPGASVKVSCKASGYAFSSSWMNWVRQAPGQRLEWMGRIYPGDGDTNYAQKFQGRVTITRDTSASTAYMELSSLRSEDTAVYYCARLLRNQPGESYAMDYWGQGTLVTVSS VL: DVVMTQTPLSLSVTPGQPASISCRSSQSLVHSNGYTYLHWYLQKPGQSPQLLIYKVSNRFSGVPDRFSGSGSGTDFTLKISRVEAEDVGVYYCSQSTRVPYTFGQGTKLEIK
93	AL2p-h47 (antibody, IgG1, V domains shown, IgG1; Fab in monovalent BLI) VH: QVQLVQSGAEVKKPGASVKVSCKASGYAFSSSWMNWVRQAPGQGLEWMGRIYPGDGDTNYNGEFRVRVTMTRDTSTSTVYMELSSLRSEDTAVYYCARLLRNQPGESYAMDYWGQGTLVTVSS VL: DVVMTQTPLSLSVTPGQPASISCRSSQSLVHSNGYTYLHWYLQKPGQSPQLLIYKVSNRFSGVPDRFSGSGSGTDFTLKISRVEAEDVGVYYCSQSTRVPYTFGQGTKLEIK
78	AL2p-h26 (antibody, IgG1, V domains shown, IgG1; Fab in monovalent BLI) VH: QVQLVQSGAEVKKPGASVKVSCKASGYAFSSSWMNWVRQAPGQRLEWIGRIYPGDGDTNYAQKFQGRVTITADTSASTAYMELSSLRSEDTAVYYCARLLRNQPGESYAMDYWGQGTLVTVSS VL: DVVMTQTPLSLSVTPGQPASISCRSSQSLVHSNGYTYLHWYLQKPGQSPQLLIYKVSNRFSGVPDRFSGSGSGTDFTLKISRVEAEDLGVYFCSQSTRVPYTFGQGTKLEIK
76	AL2p-h21 (antibody, IgG1, V domains shown, IgG1; Fab in monovalent BLI) VH: QVQLVQSGAEVKKPGASVKVSCKASGYAFSSSWMNWVRQAPGQGLEWMGRIYPGDGDTNYAQKFQGRVTMTRDTSTSTVYMELSSLRSEDTAVYYCARLLRNQPGESYAMDYWGQGTLVTVSS VL: DVVMTQTPLSLSVTPGQPASISCRSSQSLVHSNGYTYLHWYLQKPGQSPQLLIYKVSNRFSGVPDRFSGSGSGTDFTLKISRVEAEDLGVYFCSQSTRVPYTFGQGTKLEIK
61	AL2p-h22 (antibody, IgG1, V domains shown, IgG1; Fab in monovalent BLI) VH: QVQLVQSGAEVKKPGASVKVSCKASGYAFSSSWMNWVRQAPGQGLEWIGRIYPGDGDTNYAQKFQGRVTMTADTSTSTVYMELSSLRSEDTAVYYCARLLRNQPGESYAMDYWGQGTLVTVSS VL: DVVMTQTPLSLSVTPGQPASISCRSSQSLVHSNGYTYLHWYLQKPGQSPQLLIYKVSNRFSGVPDRFSGSGSGTDFTLKISRVEAEDLGVYFCSQSTRVPYTFGQGTKLEIK
87	AL2p-h19 (antibody, IgG1, V domains shown, IgG1; Fab in monovalent BLI) VH: QVQLVQSGAEVKKPGSSVKVSCKASGYAFSSSWMNWVRQAPGQGLEWMGRIYPGDGDTNYAQKFQGRATITADTSTSTAYMELSSLRSEDTAVYYCARLLRNQPGESYAMDYWGQGTLVTVSS VL: DIVMTQTPLSLSVTPGQPASISCRSSQSLVHSNGYTYLHWYLQKPGQSPQLLIYKVSNRFSGVPDRFSGSGSGTDFTLKISRVEAEDVGVYYCSQSTRVPYTFGQGTKLEIK
